Experiments:
[1] = target: Recombinant minimally biotinylated cynomolgus CD38-His (Sino Biological Inc.) (cynomolgus) (UniProt Q5VAN0); assay: BLI, Octet HTX; biotinylated CD38-His on streptavidin tips (2 nm), antibody in solution; 1:1 model, kd/ka
[2] = target: Recombinant minimally biotinylated human CD38-His (Fisher Scientific) (human) (UniProt P28907); assay: as above
[3] = target: Recombinant minimally biotinylated cynomolgus CD38-His (Sino Biological Inc.) (cynomolgus) (UniProt Q5VAN0); assay: Absolute KD; BLI, Octet HTX, CD38-His at five loading levels 0.3-2 nm, plateau of measured KD as loading decreases
[4] = target: Recombinant minimally biotinylated human CD38-His (Fisher Scientific) (human) (UniProt P28907); assay: as above
[5] = target: Recombinant human CD3ε-Fc (human); assay: SPR, SensiQ Pioneer FE; CD3ε-Fc amine coupled to CM5 chip; equilibrium analysis
[6] = target: Recombinant cynomolgus CD3ε-Fc (cynomolgus) (UniProt Q95LI5); assay: as above
[7] = target: cynomolgus CD38 on cynomolgus B cells (PBMCs) (cynomolgus) (UniProt Q5VAN0); assay: cell-based or functional assay
[8] = target: Recombinant human CD3ε-Fc (human); assay: Absolute KD; SPR, Biacore T200, CD3ε-Fc amine coupled to CM5 at lowest usable density; koff/kon, 1:1 global fit

Recombinant minimally biotinylated human CD38-His (Fisher Scientific) (human), sequence (P28907 43-300 limits assumed): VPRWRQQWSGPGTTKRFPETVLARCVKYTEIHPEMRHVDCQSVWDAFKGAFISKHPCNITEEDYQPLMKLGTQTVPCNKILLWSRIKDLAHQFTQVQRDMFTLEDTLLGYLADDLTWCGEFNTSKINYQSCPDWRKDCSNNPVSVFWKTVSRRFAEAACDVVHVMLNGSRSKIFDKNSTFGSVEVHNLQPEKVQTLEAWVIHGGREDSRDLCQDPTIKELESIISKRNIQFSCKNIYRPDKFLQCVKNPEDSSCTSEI
Recombinant human CD3ε-Fc (human), sequence (chain, as listed by the source): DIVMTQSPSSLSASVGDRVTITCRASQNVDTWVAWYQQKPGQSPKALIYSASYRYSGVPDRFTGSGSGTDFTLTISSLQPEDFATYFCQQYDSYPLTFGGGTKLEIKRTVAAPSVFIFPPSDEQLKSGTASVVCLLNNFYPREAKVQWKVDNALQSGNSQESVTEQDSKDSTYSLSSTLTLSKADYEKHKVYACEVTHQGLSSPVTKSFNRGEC
Recombinant minimally biotinylated cynomolgus CD38-His (Sino Biological Inc.) (cynomolgus), sequence (Q5VAN0 44-301 limits assumed): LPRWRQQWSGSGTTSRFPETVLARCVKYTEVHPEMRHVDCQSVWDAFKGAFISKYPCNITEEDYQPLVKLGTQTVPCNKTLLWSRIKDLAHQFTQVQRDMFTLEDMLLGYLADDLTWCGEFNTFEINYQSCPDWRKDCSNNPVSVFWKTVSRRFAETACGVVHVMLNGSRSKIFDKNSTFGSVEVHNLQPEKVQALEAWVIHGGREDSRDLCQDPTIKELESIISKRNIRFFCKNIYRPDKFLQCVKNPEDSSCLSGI
Recombinant cynomolgus CD3ε-Fc (cynomolgus), sequence (Q95LI5 22-117 limits assumed): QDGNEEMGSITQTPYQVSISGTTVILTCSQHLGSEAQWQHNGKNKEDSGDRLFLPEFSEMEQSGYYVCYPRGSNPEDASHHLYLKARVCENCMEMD
cynomolgus CD38 on cynomolgus B cells (PBMCs) (cynomolgus), sequence (Q5VAN0 whole entry): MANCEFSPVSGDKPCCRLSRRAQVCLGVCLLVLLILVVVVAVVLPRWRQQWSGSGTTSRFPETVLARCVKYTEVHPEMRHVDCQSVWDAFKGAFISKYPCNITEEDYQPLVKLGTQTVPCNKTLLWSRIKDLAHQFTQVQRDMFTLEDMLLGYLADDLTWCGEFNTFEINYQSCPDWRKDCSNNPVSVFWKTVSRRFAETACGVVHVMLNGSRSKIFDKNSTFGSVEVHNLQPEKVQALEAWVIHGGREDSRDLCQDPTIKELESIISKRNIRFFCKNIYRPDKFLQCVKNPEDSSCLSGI

XmAb18968 (412220) (bispecific antibody)
Kd [1]: 2.8 nM
Kd [2]: 2.5 nM
Kd [3]: 7.5 nM
Kd [4]: 8.9 nM
Kd [5]: 29.7 nM
Kd [6]: 33.5 nM
Cyno B Cell TDCC EC50 [7]: 0.082 nM
Kd [8]: 35.6 nM
